Measured values: patent US12723243B2, “Archaeal pyrrolysyl tRNA synthetases for orthogonal use” (European Molecular Biology Laboratory, priority 2016, dated 2026)

System: mCherry-GFP^Y39TAG amber suppression reporter
Assay: Amber suppression in baculovirus-transduced Sf21 insect cells, flow cytometry
Assay type: cell-based, Spodoptera frugiperda
Method: Following standard protocols, insect cells of line Sf21 were cultured in a protein-free, serum-free standard culture medium for Spodoptera frugiperda cells (Sf-900™ III SFM) at 27° C. shaking at 180 rpm. The Sf21 cells were split every day to a density of 0.6×10^6 cells/ml or every third day to a density of 0.3×10^6 cells/ml.
Baculovirus shuttle vector (Bacmid) DNA containing an expression cassette encoding tRNA^Pyl, mCherry-GFP^Y39TAG and either PylRS^AF or NES-PylRS^AF was prepared using standard cloning and recombination procedures.
For transfection 3 ml/well of 0.3×10^6 Sf21 cells/ml were seeded in a 6-well cell culture multidish (Nunclon Delta Surface, Thermo scientific) and transfected with Bacmid DNA using a nonliposomal transfection reagent (FuGENE®HD Transfection Reagent, Promega) following the manufacturer's instructions. V0-virus was harvested 70 h post transfection and the V1-generation was started. Therefor, 25 ml Sf21 cells at 0.6×10^6 cells/ml were transfected with 3 ml of the Vo-virus. After cell proliferation stopped, the cultures were kept for another 48-60 h at 27° C. shaking at 180 rpm. The transfected cells were harvested by centrifugation (500 rpm, 10 min) and the supernatant (i.e., the V1-Virus) was stored at 4° C.
5-25 ml Sf21 cells at 0.6×10^6 cells/ml were transduced with V1-virus prepared by method (I) at a ratio of 100:1 vol/vol (cells:virus). One day afterwards, different amounts of UAA 1 (0-1 mM final concentration) was added to the cultures. After three days of culture, the cells were harvested by centrifugation (500 rpm, 10 min), cooled down to 4° C., resuspended in 2 ml sterile 1×PBS, filtered through a cell strainer (Falcon, 70 μm, Fisher Scientific) and kept on ice until analysis. Data for 500,000 cells of each sample was acquired and analyzed using a LSRFortessa SORP Cell Analyzer (Becton, Dickinson and Company) and the FlowJo software (FlowJo Enterprise). Cells were gated first by cell type (using FSC-A×SSC-A parameters) and then by single cell (FSC-A×SSC-W). GFP fluorescence was acquired in the 488-530/30 channel and mCherry fluorescence in the 561-610/20 channel.
Sf21 cells were transduced with Bacmid DNA encoding tRNA^Pyl, mCherry-GFP^Y39TAG, and either PylRS^AF or NES-PylRS^AF, cultured with different concentrations (0, 10, 50, 100, 250, 500 or 1000 μM) of UAA 1 (BOC) and analyzed using methods (I) and (J) described herein.
mCherry fluorescence of the cells indicated successful transduction with Bacmid DNA. GFP fluorescence of the cells indicated successful suppression of the amber stop codon encoding amino acid position 39 of the GFP^Y39TAG reporter gene by incorporation of UAA 1 at said position.

B1: PylRS^AF: mutant M. mazei pyrrolysyl tRNA synthetase comprising amino acid substitutions Y306A and Y384F, SEQ ID NO:2 (protein)
chain: MDKKPLNTLISATGLWMSRTGTIHKIKHHEVSRSKIYIEMACGDHLVVNNSRSSRTARALRHHKYRKTCKRCRVSDEDLNKFLTKANEDQTSVKVKVVSAPTRTKKAMPKSVARAPKPLENTEAAQAQPSGSKFSPAIPVSTQESVSVPASVSTSISSISTGATASALVKGNTNPITSMSAPVQASAPALTKSQTDRLEVLLNPKDEISLNSGKPFRELESELLSRRKKDLQQIYAEERENYLGKLEREITRFFVDRGFLEIKSPILIPLEYIERMGIDNDTELSKQIFRVDKNFCLRPMLAPNLANYLRKLDRALPDPIKIFEIGPCYRKESDGKEHLEEFTMLNFCQMGSGCTRENLESIITDFLNHLGIDFKIVGDSCMVFGDTLDVMHGDLELSSAVVGPIPLDREWGIDKPWIGAGFGLERLLKVKHDFKNIKRAARSESYYNGISTNL
modifications: Methanosarcina mazei PylRS Y306A, Y384F mutant; MUTAGEN 306 Y306A mutation; MUTAGEN 384 Y384F mutation
Q: How did the “Cells showing both mCherry and GFP fluorescence” value (Sf21, UAA 1 conc. 0 μM) turn out when B1 was run?
A: The value was 1.4%.

Q: What about the “Cells showing only mCherry fluorescence” value (Sf21, UAA 1 conc. 0 μM) of the same molecule?
A: The value was 94.6%.

Q: And the “Cells showing both mCherry and GFP fluorescence” value (Sf21, UAA 1 conc. 10 μM)?
A: Its value is 20.1%.

Q: And the “Cells showing only mCherry fluorescence” value (Sf21, UAA 1 conc. 10 μM)?
A: Its value is 75.8%.

Q: What about the “Cells showing both mCherry and GFP fluorescence” value (Sf21, UAA 1 conc. 50 μM) of the same molecule?
A: The value was 56.2%.

Q: What about the “Cells showing only mCherry fluorescence” value (Sf21, UAA 1 conc. 50 μM) of the same molecule?
A: Its value is 39.3%.

Q: What about the “Cells showing both mCherry and GFP fluorescence” value (Sf21, UAA 1 conc. 100 μM) of the same molecule?
A: Its value is 67.1%.

Q: And the “Cells showing only mCherry fluorescence” value (Sf21, UAA 1 conc. 100 μM)?
A: The value was 25.9%.

Q: And the “Cells showing both mCherry and GFP fluorescence” value (Sf21, UAA 1 conc. 250 μM)?
A: Its value is 76.5%.

Q: And the “Cells showing only mCherry fluorescence” value (Sf21, UAA 1 conc. 250 μM)?
A: Its value is 13.9%.

Q: And the “Cells showing both mCherry and GFP fluorescence” value (Sf21, UAA 1 conc. 500 μM)?
A: The value was 81.6%.

Q: What about the “Cells showing only mCherry fluorescence” value (Sf21, UAA 1 conc. 500 μM) of the same molecule?
A: The value was 9.1%.

Q: What about the “Cells showing both mCherry and GFP fluorescence” value (Sf21, UAA 1 conc. 1000 μM) of the same molecule?
A: The value was 85.8%.

Q: What about the “Cells showing only mCherry fluorescence” value (Sf21, UAA 1 conc. 1000 μM) of the same molecule?
A: Its value is 5.7%.
